Results on eight molecules are retold here after patent US20180237511A1 (Sanofi, published 2018).

Assay [1] concerns the target T1, human beta-dystroglycan extracellular domain (soluble) (human, UniProt Q14118 654-749).
T1 construct: extracellular domain; The expression construct of soluble human beta-DG is not described (only the mouse one); One entry is used for all soluble human beta-DG, also for the crystal structure; also called hBeta-DG; hbeta-DG
T1 sequence (looked up): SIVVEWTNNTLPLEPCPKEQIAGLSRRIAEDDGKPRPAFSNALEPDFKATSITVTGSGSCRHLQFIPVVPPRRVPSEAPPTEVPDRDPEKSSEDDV
The experiment in a line: SPR (Biacore) kinetics; mAb immobilized, hBeta-DG in flow.

For assay [2], the target named is T2, murine beta-dystroglycan extracellular domain (mbeta-DG ECD), HPC4 tagged (mouse, UniProt Q62165 652-746).
T2 construct: range 652-746; Made in E. coli as MBP fusion; MBP cleaved off with TEV protease; also called mbeta-DG-HPC4; murine beta-DG; not shown: C-terminal HPC4 tag
T2 sequence (looked up): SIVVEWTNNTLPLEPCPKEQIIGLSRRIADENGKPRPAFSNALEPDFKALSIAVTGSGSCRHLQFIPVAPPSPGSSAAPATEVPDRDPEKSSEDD
The experiment in a line: SPR (Biacore) kinetics; mAb immobilized, mBeta-DG in flow.

Assay [3] concerns the target T1, human beta-dystroglycan extracellular …. The experiment in a line: SPR, antibody on Protein G chip, beta-DG in flow, 1:1 model (table title says laminin-2; paragraph 445 says human beta-DG). How it is done: (§1) Data was evaluated with a 1:1 binding model using the BIAevaluation software.
(§2) SPR was used as described above to analyze the kinetics of triAb binding to laminin-2 (Table N) or beta-DG (Table O).

Assay [4] shares this target. Kind of assay: sequential SPR (Biacore T100): antibody captured on a Protein G chip, 200 nM human LG4/5 for 60 s, then 200 nM human beta-DG for 60 s. How it is done: For sequential dual binding of antigens to trivalent antibodies, a Series S Sensor Protein G chip (GE Healthcare, 29179315) was used with a T100 Biacore. This chip was used to immobilize trivalent or parental antibody to the surface (60 seconds with 5 ug/mL of antibody). After capture, 200 nM of LG4/5 was flowed over the chip for 60 seconds followed by 200 nM of beta-DG for 60 seconds. Binding to the trivalent antibody was observed by the change of mass detected on the chip in relative units (RU).
Additionally, surface plasmon resonance was performed to show sequential binding of the human laminin-2 and beta-DG antigens (FIG. 1C).

Assay [5] concerns the target T3, human laminin G-like 4 and 5 domains of laminin-2 (hLG-4/5), soluble (human, UniProt P24043 2729-3122, biotinylated in the ELISA of Example 6).
T3 construct: range 2729-3122; also called human LG-4/5; hLG4/LG5; not shown: Avi tag and HPC4 tag left after TEV cleavage of the N-terminal mIgG2a fusion partner
T3 sequence (looked up): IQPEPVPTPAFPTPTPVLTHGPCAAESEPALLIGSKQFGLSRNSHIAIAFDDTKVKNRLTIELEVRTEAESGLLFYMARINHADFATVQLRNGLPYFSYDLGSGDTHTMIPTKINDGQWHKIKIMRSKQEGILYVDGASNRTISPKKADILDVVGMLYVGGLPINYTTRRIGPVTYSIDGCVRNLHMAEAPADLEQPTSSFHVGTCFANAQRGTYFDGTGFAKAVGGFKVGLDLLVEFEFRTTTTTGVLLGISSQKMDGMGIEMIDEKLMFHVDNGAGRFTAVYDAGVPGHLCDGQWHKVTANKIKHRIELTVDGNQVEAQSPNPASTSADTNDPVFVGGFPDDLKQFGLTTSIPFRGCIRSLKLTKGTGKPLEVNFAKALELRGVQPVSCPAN
The experiment in a line: SPR, antibody on Protein G chip, LG4/5 in flow, 1:1 model (table title says beta-DG; paragraph 445 says human laminin-2). How it is done:
as §1, §2

Assay [6] addresses T4, human laminin G-like 5 domain of laminin-2 (hLG-5) (human, UniProt P24043 2936-3122, soluble biotinylated protein (Avi tag)).
T4 construct: The construct used for the crystal structure with C21 Fab is not described; the same entry is used; also called human LG-5; human LG5; not shown: N-terminal Avi and HPC4 tags
T4 sequence: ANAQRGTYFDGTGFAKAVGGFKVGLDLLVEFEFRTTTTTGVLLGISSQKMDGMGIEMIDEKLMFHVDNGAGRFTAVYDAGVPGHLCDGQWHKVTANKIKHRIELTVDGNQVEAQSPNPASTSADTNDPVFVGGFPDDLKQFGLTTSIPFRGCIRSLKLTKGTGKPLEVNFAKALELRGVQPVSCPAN
The experiment in a line: SPR (Biacore) kinetics; mAb immobilized, hLG-5 in flow.

B1: anti-beta-DG antibody derived from phage display clone B04 (antibody, V domains shown)
VH: QVQLQQSGGGLVQPGGSLRLSCAASGFTFSSYAMSWVRQAPGKGLEWVSAISGSGGSTYYADSVKGRFTVSRDNSKNTLYLQMNSLRAEDTAVYYCARLGYCSSTSCYLSAFDIWGQGTMVTVSS
VL: EIVLTQSPSTLSASVGDRVTITCRASQSISSWLAWYQQKPGKAPKLLIYDASSLESGVPSRFSGSGSGTEFTLTISSLQPDDFATYYCQQYNSYPLTFGGGTKVEIK
notes: Phage display clone
In assay [1], B1 displayed a koff of 0.0016 s⁻¹ and a kon of 62000 M⁻¹ s⁻¹. For the same molecule, in assay [2], the equilibrium dissociation constant (Kd) stood at 25.7 nM, the koff turned out to be 0.0016 s⁻¹ and the kon was 62000 M⁻¹ s⁻¹.

B2: humanized anti-beta-DG antibody AS30SS_Hu6 (antibody, V domains shown)
VH: QVQLVQSGAEVVKPGSSVKVSCEASGFTFTDSVITWVRQRPGQGLEWIGEIYPGSGNFYYNEKFQGRVTITADKSTSTAYMELSSLRSEDTAVYFCAMRRSSWGQGTLVTVSS
VL: DVVMTQTPLSLSVTPGQPASISCKSSQTIVHSNSKTYLEWYLQKPGQSPQLLIYKVSSRFSGVPDRFSGSGSGTDFTLKISRVEAEDVGVYYCFQGSHVPLTFGQGTKLEIK
notes: also called AS30_Hu6; AS30 Hu6
In assay [3], B2 gave a Kd of 0.796 nM, a koff of 0.00202 s⁻¹ and a kon of 2.54e+06 M⁻¹ s⁻¹.

B3: humanized anti-laminin-2 antibody C3_Hu10 (antibody, V domains shown)
VH: EVQLVESGGGLVKPGGSLRLSCAASGFTFSSYTMSWVRQAPGKGLEWVASISSSGSNTYYPDSVKGRFTISRDNAKNNLYLQMNSLRAEDTALYYCARFDYGSSLDSWGQGTLLTVSS
VL: EIVLTQSPDFLSVTPKEKVTLTCRASQSISNNLHWYQQKSDQSPKLLIKYASQSISGIPSRFSGSGSGTDFTLTINSVEAEDAATYFCQQSKSWPRTFGGGTKLEIK
notes: Called monovalent anti-LG4/5 antibody
B3: the binding result in assay [4] is on record as “no binding (tested: 200 nM)”.

B4: humanized anti-laminin-2 antibody C21_Hu11 (antibody, V domains shown)
VH: EVQLVESGGGLVKPGGSLRLSCAASGFTFSSYTMSWVRQAPGKGLEWVASISSSGSNTYYPDSVKGRFTISRDNAKNNLYLQMNSLRAEDTALYYCARFDYGSSLDSWGQGTLLTVSS
VL: EIVLTQSPDFLSVTPKEKVTLSCRASQSISNYLHWYQQKSDQSPKLLIKYASQSISGIPSRFSGSGSGTDFTLSINSVEAEDAATYFCQQSKSWPRTFGGGTKLEIK
notes: as for B3
As for B4, the binding result in assay [4] is “no binding (tested: 200 nM)”.

B5: humanized anti-laminin-2 antibody C3_Hu11 (antibody, V domains shown)
VH: EVQLVESGGGLVKPGGSLRLSCAASGFTFSSYTMSWVRQAPGKGLEWVASISSSGSNTYYPDSVKGRFTISRDNAKNNLYLQMNSLRAEDTALYYCARFDYGSSLDSWGQGTLLTVSS
VL: EIVLTQSPDFLSVTPKEKVTLTCRASQSIGNNLHWYQQKSDQSPKLLIKYASQSISGIPSRFSGSGSGTDFTLTINSVEAEDAATYFCQQSKSWPRTFGGGTKLEIK
notes: as for B3
Regarding B5, the binding result in assay [4] is reported as “no binding (tested: 200 nM)”. Besides, in assay [5], the affinity, expressed as Kd, was 9.83 nM; the koff amounted to 0.00117 s⁻¹; the kon came out at 119000 M⁻¹ s⁻¹.

B6: humanized anti-laminin-2 antibody C21_Hu21 (antibody, V domains shown)
VH: EVQLVESGGGLVQPGGSLRLSCAASGFTFSSYTMSWVRQAPGKGLEWVATISSSGDNTYYPDSVKGRFTISRDNSKNTLYLQMSSLRAEDTALYYCARFDYGSSLDSWGQGTTLTVSS
VL: EIVLTQSPDFLSVTPGEKVTLTCRASQSISNYLHWYQQKSDQSPKLLIKYASQSISGVPSRFSGSGSGTDFTLTISSVEAEDFATYFCQQSKSWPRTFGGGTKLEIK
notes: as for B3
With B6, the binding result in assay [4] is “no binding (tested: 200 nM)”. In assay [5], this molecule yielded a Kd of 8.99 nM, a koff of 0.00144 s⁻¹ and a kon of 160000 M⁻¹ s⁻¹.

B7: triAb 3429 (bispecific antibody)
light 1: EIVLTQSPDFLSVTPGEKVTLTCRASQSISNYLHWYQQKSDQSPKLLIKYASQSISGVPSRFSGSGSGTDFTLTISSVEAEDFATYFCQQSKSWPRTFGGGTKLEIKDKTHTEIVLTQSPDFLSVTPKEKVTLTCRASQSIGNNLHWYQQKSDQSPKLLIKYASQSISGIPSRFSGSGSGTDFTLTINSVEAEDAATYFCQQSKSWPRTFGGGTKLEIKDKTHTRTVAAPSVFIFPPSDEQLKSGTASVVCLLNNFYPREAKVQWKVDNALQSGNSQESVTEQDSKDSTYSLSSTLTLSKADYEKHKVYACEVTHQGLSSPVTKSFNRGEC
heavy 1: EVQLVESGGGLVKPGGSLRLSCAASGFTFSSYTMSWVRQAPGKGLEWVASISSSGSNTYYPDSVKGRFTISRDNAKNNLYLQMNSLRAEDTALYYCARFDYGSSLDSWGQGTLLTVSSDKTHTEVQLVESGGGLVQPGGSLRLSCAASGFTFSSYTMSWVRQAPGKGLEWVATISSSGDNTYYPDSVKGRFTISRDNSKNTLYLQMSSLRAEDTALYYCARFDYGSSLDSWGQGTTLTVSSDKTHTASTKGPSVFPLAPSSKSTSGGTAALGCLVKDYFPEPVTVSWNSGALTSGVHTFPAVLQSSGLYSLSSVVTVPSSSLGTQTYICNVNHKPSNTKVDKKVEPKSCDKTHTCPPCPAPELLGGPSVFLFPPKPKDTLYITREPEVTCVVVDVSHEDPEVKFNWYVDGVEVHNAKTKPREEQYNNASRVVSVLTVLHQDWLNGKEYKCKVSNKALPAPIEKTISKAKGQPREPQVYTLPPCRDELTKNQVSLWCLVKGFYPSDIAVEWESNGQPENNYKTTPPVLDSDGSFFLYSKLTVDKSRWQQGNVFSCSVMHEALHNHYTQKSLSLSPG
heavy 2: QVQLVQSGAEVVKPGSSVKVSCEASGFTFTDSVITWVRQRPGQGLEWIGEIYPGSGNFYYNEKFQGRVTITADKSTSTAYMELSSLRSEDTAVYFCAMRRSSWGQGTLVTVSSASTKGPSVFPLAPSSKSTSGGTAALGCLVKDYFPEPVTVSWNSGALTSGVHTFPAVLQSSGLYSLSSVVTVPSSSLGTQTYICNVNHKPSNTKVDKKVEPKSCDKTHTCPPCPAPELLGGPSVFLFPPKPKDTLYITREPEVTCVVVDVSHEDPEVKFNWYVDGVEVHNAKTKPREEQYNNASRVVSVLTVLHQDWLNGKEYKCKVSNKALPAPIEKTISKAKGQPREPQVCTLPPSRDELTKNQVSLSCAVKGFYPSDIAVEWESNGQPENNYKTTPPVLDSDGSFFLVSKLTVDKSRWQQGNVFSCSVMHEALHNRFTQKSLSLSPG
light 2: DVVMTQTPLSLSVTPGQPASISCKSSQTIVHSNSKTYLEWYLQKPGQSPQLLIYKVSSRFSGVPDRFSGSGSGTDFTLKISRVEAEDVGVYYCFQGSHVPLTFGQGTKLEIKRTVAAPSVFIFPPSDEQLKSGTASVVCLLNNFYPREAKVQWKVDNALQSGNSQESVTEQDSKDSTYSLSSTLTLSKADYEKHKVYACEVTHQGLSSPVTKSFNRGEC
notes: Trivalent: CODV arm VH1/VL1 C3_Hu11, VH2/VL2 C21_Hu21
B7: in assay [3], the Kd amounted to 1.9 nM, the dissociation rate constant (koff) was determined as 0.00404 s⁻¹ and the kon came out at 2.13e+06 M⁻¹ s⁻¹.

B8: anti-laminin-2 (anti-LG-5) monoclonal antibody clone AN01 (antibody, V domains shown)
VH: EVQLQQSGPELVKPGASVKMSCKASGYTFTSYNIHWVKQKPGQGLEWIGYINPYNDGTKYSEKFKGKATLTSDRSSSTAYMEVSSLTSEDSAVYYCAIYGNSYWGQGSTLTVSS
VL: DIVMTQAAPSIPVTPGESVSISCRSSKSLLHSNGNTYLYWFLQRPGQSPQRLIYYMSNLDSGVPDRFSGRGSGTDFTLRISRVEAEDVGVYYCMQGLEYPYTFGGGTKLEIK
notes: tested as immobilized mAb
In the case of B8, in assay [6], the Kd was 9.24 nM, the koff turned out to be 0.000915 s⁻¹ and the kon stood at 99000 M⁻¹ s⁻¹.
